Experimental data published in paper PMC11922060.

B1: Sumo-tagged Drosophila Spd-2 SP2D (Spd-2 697-998), wild type [D. melanogaster] / itself (parent)
chain: LLPLKVTHTTLCWGSTKLRTDVRKSMQVKNTADKRLVIRLGIQGPGFQLVGTDSSTITLQAMECRSVVINFCPTVCGAAIGALSFYAPPGAHNSNQPGLEIPLYGYGGSASITINGLLKGPVGASFLTIGDVCELSAGPLSANLKFHNKGPLTAFVGISVDSTVLMKLRLSEAFEVRPSRLILPPNSERCVQILFRPNREDLKNILKKTAQVLTLANMRIFCGDEPNRQRMRSLVQRMSSRQREKLTSPMLDSIWGEFPDEQPVRNIGQLNEPPEFILDLVTVVRIIDVALTLNRDFDESSE

Variants of: B1
Assay: SEC-MALS
Settings: with itself; 200 µM protein; read off a plot

In order of falling screen value:
1. LLPLKVTHTTLCWGSTKLRTDVRKSMQVKNTADKRLVIRLGIQGPGFQLVGTDSSTITLQAMECRSVVINFCPTVCGAAIGALSFYAPPGAHNSNQPGLEIPLYGYGGSASITINGLLKGPVGASDLTIGDVCELSAGPLSANLKFHNKGPLTAFVGISVDSTVLMKLRLSEAFEVRPSRLILPPNSERCVQILFRPNREDLKNILKKTAQVLTLANMRIFCGDEPNRQRMRSLVQRMSSRQREKLTSPMLDSIWGEFPDEQPVRNIGQLNEPPEFILDLVTVVRIIDVALTLNRDFDESSE [chain 1 F126D]  46 kDa
2. LLPLKVTHTTLCWGSTKLRTDVRKSMQVKNTADKRLVIRLGIQGPGFQLVGTDSSTITLQAMECRSVVINFCPTVCGAAIGALSFYAPPGAHNSNQPGLEIPLYGYGGSASITINGLLKGDVGASFLTIGDVCELSAGPLSANLKFHNKGPLTAFVGISVDSTVLMKLRLSEAFEVRPSRLILPPNSERCVQILFRPNREDLKNILKKTAQVLTLANMRIFCGDEPNRQRMRSLVQRMSSRQREKLTSPMLDSIWGEFPDEQPVRNIGQLNEPPEFILDLVTVVRIIDVALTLNRDFDESSE [chain 1 P121D]  45 kDa
